Laboratory results as given in publication PMC4154131, “Molecular pathogenesis of Spondylocheirodysplastic Ehlers-Danlos syndrome caused by mutant ZIP13 proteins” (EMBO Molecular Medicine, 2014).

Legend:
[1] = target: N-terminally 3xFLAG-tagged G64D mutant ZIP13 (human); experiment: native gel or EMSA; blue native-PAGE of lysates of 293T cells expressing F-WT or F-G64D
[2] = target: the molecule itself; experiment: as above

## N-terminally 3xFLAG-tagged G64D mutant ZIP13 (natural protein)
[1]
  stoichiometry N: 2

B1: N-terminally 3xFLAG-tagged wild-type ZIP13 (natural protein, human, UniProt Q96H72 1-371, looked up)
chain: MPGCPCPGCGMAGPRLLFLTALALELLERAGGSQPALRSRGTATACRLDNKESESWGALLSGERLDTWICSLLGSLMVGLSGVFPLLVIPLEMGTMLRSEAGAWRLKQLLSFALGGLLGNVFLHLLPEAWAYTCSASPGGEGQSLQQQQQLGLWVIAGILTFLALEKMFLDSKEEGTSQAPNKDPTAAAAALNGGHCLAQPAAEPGLGAVVRSIKVSGYLNLLANTIDNFTHGLAVAASFLVSKKIGLLTTMAILLHEIPHEVGDFAILLRAGFDRWSAAKLQLSTALGGLLGAGFAICTQSPKGVVGCSPAAEETAAWVLPFTSGGFLYIALVNVLPDLLEEEDPWRSLQQLLLLCAGIVVMVLFSLFVD
notes: ZIP13 (SLC39A13) zinc transporter, human, wild type; construct as previously described (Fukada et al, 2008); The 3xFLAG precedes the signal peptide; also called F-WT; F-ZIP13; source: 293T, transfected, in lysate; not shown: 3xFLAG, N-terminal, kept
[2]
  stoichiometry N: 2
